Laboratory results: patent publication US20160303225A1 (HENRY M JACKSON FOUNDATION FOR THE ADVANCEMENT OF MILITARY …, published 2016)

Molecular target: T1, modified HCMV gB (homotrimeric complex of modified human cytomegalovirus glycoprotein B) (human cytomegalovirus (HCMV), UniProt F5HB53 25-750)
T1 construct: It runs as a 360 kDa homotrimer under native or partially reducing conditions and as a 120 kDa monomer under fully reducing or denaturing conditions; also called trimeric HCMV gB; HCMV trimeric gB
Test: purified proteins mixed 1:1 (molecular ratio) and incubated at room temperature for 2 hours; Western blot under non-reducing conditions

B1: HCMV gH/gL fusion protein (other)
chain: DATVSVAPTVAEKVPAECPELTRRCLLGEVFQGDKYESWLRPLVNVTRRDGPLSQLIRYRPVTPEAANSVLLDDAFLDTLALLYNNPDQLRALLTLLSSDTAPRWMTVMRGYSECGDGSPAVYTCVDDLCRGYDLTRLSYGRSIFTEHVLGFELVPPSLFNVVVAIRNEATRTNRAVRLPVSTAAAPEGITLFYGLYNAVKEFCLRHQLDPPLLRHLDKYYAGLPPELKQTRVNLPAHSRYGPQAVDARGGGGSGGGGSGGGGSYGAEAISEPLDKAFHLLLNTYGRPIRFLRENTTQCTYNSSLRNSTVVRENAISFNFFQSYNQYYVFHMPRCLFAGPLAEQFLNQVDLTETLERYQQRLNTYALVSKDLASYRSFSQQLKAQDSLGEQPTTVPPPIDLSIPHVWMPPQTTPHGWTESHTTSGLHRPHFNQTCILFDGHDLLFSTVTPCLHQGFYLIDELRYVKITLTEDFFVVTVSIDDDTPMLLIFGHLPRVLFKAPYQRDNFILRQTEKHELLVLVKKDQLNRHSYLKDPDFLDAALDFNYLDLSALLRNSFHRYAVDVLKSGRCQMLDRRTVEMAFAYALALFAAARQEEAGAQVSVPRALDRQAALLQIQEFMITCLSQTPPRTTLLLYPTAVDLAKRALWTPNQITDITSLVRLVYILSKQNQQHLIPQWALRQIADFALKLHKTHLASFLSAFARQELYLMGSLVHSMLVHTTERREIFIVETGLCSLAELSHFTQLLAHPHHEYLSDLYTPCSSSGRRDHSLERLTRLFPDATVPTTVPAALSILSTMQPSTLETFPDLFCLPLGESFSALTVSEHVSYVVTNQYLIKGISYPVSTTVVGQSLIITQTDSQTKCELTRNMHTTHSITAALNISLENCAFCQSALLEYDDTQGVINIMYMHDSDDVLFALDPYNEVVVSSPRTHYLMLLKNGTVLEVTDVVVDATDSRLHHHHHH
notes: It was expressed in CHO DG44 cells; also called monomeric gH/gL; gH/gL heterodimer
binding result: binds
